This assay concerns the target HLA-A*02:01 (Homo sapiens, UniProt P04439, D140Y/D185E/D98H/E176V/E277Q/G131W/G231S/I119V/I121R/I166T/I218V/L300P/L318F/N151K/N90K/P208A/P217A/Q86G/Q94H/R138H/R169H/T345S). Nature of the assay: MHC binding assay: UV-ligand exchange with beta2m ELISA (peptide exchange yield). The conditions noted are these: binding to HLA-A*02:01. From the text: Candidate peptides for T cell based therapies according to the present invention were further tested for their MHC binding capacity (affinity). The individual peptide-MHC complexes were produced by UV-ligand exchange, where a UV-sensitive peptide is cleaved upon UV-irradiation, and exchanged with the peptide of interest as analyzed. Only peptide candidates that can effectively bind and stabilize the peptide-receptive MHC molecules prevent dissociation of the MHC complexes. To determine the yield of the exchange reaction, an ELISA was performed based on the detection of the light chain ([…]) of stabilized MHC complexes. The assay was performed as generally described in Rodenko et al. (Rodenko et al., 2006).
96 well MAXISorp plates (NUNC) were coated over night with 2 ug/ml streptavidin in PBS at room temperature, washed 4× and blocked for 1 h at 37° C. in 2% BSA containing blocking buffer. […] Peptide-MHC monomers of the UV-exchange reaction were diluted 100 fold in blocking buffer. Samples were incubated for 1h at 37° C., washed four times, incubated with 2 ug/ml HRP conjugated anti-β2m for 1h at 37° C., washed again and detected with TMB solution that is stopped with […]. Absorption was measured at 450 nm. Candidate peptides that show a high exchange yield (preferably higher than 50%, most preferred higher than 75%) are generally preferred for a generation and production of antibodies or fragments thereof, and/or T cell receptors or fragments thereof, as they show sufficient avidity to the MHC molecules and prevent dissociation of the MHC complexes.
In general terms: ELISA stands for enzyme-linked immunosorbent assay.

From patent US10464978B2, “Peptides and combination of peptides for use in immunotherapy against ovarian cancer and other cancers” (immatics biotechnologies GmbH, priority 2015, dated 2019) come the findings set out here.

Turning to “176 (YLMEGSYNKVFL; listed as Homo sapiens) [compound 176]”, the “Peptide exchange (MHC class I binding score, peptide exchange yield)” value (shortened to “Peptide exchange”) is ““++” (≥20% = ++)”.

As to “68 (SLMELPRGLFL; listed as Homo sapiens) [compound 68]”, the “Peptide exchange” value is listed as ““++++” (≥75% = ++++)”.

As for “557 (KLYDDMIRL; listed as Homo sapiens) [compound 557]”, the “Peptide exchange” value is on record as ““+++” (≥50 = +++)”.

For the substance “272 (ALGNTVPAV; listed as Homo sapiens) [compound 272]”, the “Peptide exchange” value was ““+++” (≥50 = +++)”.

On to “475 (LLLNEEALAQI; listed as Homo sapiens) [compound 475]”, for which the “Peptide exchange” value is ““+++” (≥50 = +++)”.

Turning to “175 (YLFENISQL; listed as Homo sapiens) [compound 175]”, the “Peptide exchange” value was ““+++” (≥50 = +++)”.

Regarding “314 (ALIAEGIALV; listed as Homo sapiens) [compound 314]”, the “Peptide exchange” value is on record as ““+++” (≥50 = +++)”.

Turning to “569 (KLVDRTWTL; listed as Homo sapiens) [compound 569]”, the “Peptide exchange” value is recorded as ““+++” (≥50 = +++)”.

With “21 (VLDELDMEL; listed as Homo sapiens) [compound 21]”, the “Peptide exchange” value is ““++” (≥20% = ++)”.

Turning to “103 (TLAEEVVAL; listed as Homo sapiens) [compound 103]”, the “Peptide exchange” value is listed as ““+++” (≥50 = +++)”.

Take “224 (TLIDAQWVL; listed as Homo sapiens) [compound 224]”: the “Peptide exchange” value is reported as ““+++” (≥50 = +++)”.

For the substance “139 (SVMEVNSGIYRV; listed as Homo sapiens) [compound 139]”, the “Peptide exchange” value was ““+++” (≥50 = +++)”.

On to “77 (ILVEADGAWVV; listed as Homo sapiens) [compound 77]”, for which the “Peptide exchange” value is given as ““++++” (≥75% = ++++)”.

Consider “202 (ALLDQQGSRWTL; listed as Homo sapiens) [compound 202]”, for which the “Peptide exchange” value is ““+++” (≥50 = +++)”.

As to “110 (FLSQVDFEL; listed as Homo sapiens) [compound 110]”, the “Peptide exchange” value is ““+++” (≥50 = +++)”.

“271 (LVYPLELYPA; listed as Homo sapiens) [compound 271]”: the “Peptide exchange” value is ““+++” (≥50 = +++)”.

With “281 (ILRESTEEL; listed as Homo sapiens) [compound 281]”, the “Peptide exchange” value was ““+++” (≥50 = +++)”.

Regarding “310 (FLVDTPLARA; listed as Homo sapiens) [compound 310]”, the “Peptide exchange” value is given as ““++++” (≥75% = ++++)”.

As for “50 (SLSELEALM; listed as Homo sapiens) [compound 50]”, the “Peptide exchange” value is recorded as ““+++” (≥50 = +++)”.

With “467 (FLAKDFNFL; listed as Homo sapiens) [compound 467]”, the “Peptide exchange” value is given as ““+++” (≥50 = +++)”.

For “49 (YLPAVFEEV; listed as Homo sapiens) [compound 49]”, the “Peptide exchange” value is on record as ““+++” (≥50 = +++)”.

In the case of “350 (ALLDVTHSELTV; listed as Homo sapiens) [compound 350]”, the “Peptide exchange” value is recorded as ““+++” (≥50 = +++)”.

Consider “71 (GILARIASV; listed as Homo sapiens) [compound 71]”, for which the “Peptide exchange” value is ““+++” (≥50 = +++)”.

Regarding “196 (YLYSVEIKL; listed as Homo sapiens) [compound 196]”, the “Peptide exchange” value is recorded as ““++++” (≥75% = ++++)”.

“401 (ILLDDTGLAYI; listed as Homo sapiens) [compound 401]”: the “Peptide exchange” value is on record as ““+++” (≥50 = +++)”.

As for “134 (YLQELIFSV; listed as Homo sapiens) [compound 134]”, the “Peptide exchange” value is reported as ““+++” (≥50 = +++)”.

In the case of “212 (ALWDQDNLSV; listed as Homo sapiens) [compound 212]”, the “Peptide exchange” value was ““++” (≥20% = ++)”.

Take “178 (ALTEIAFVV; listed as Homo sapiens) [compound 178]”: the “Peptide exchange” value is recorded as ““++++” (≥75% = ++++)”.

“487 (LLINSVFHV; listed as Homo sapiens) [compound 487]”: the “Peptide exchange” value is ““+++” (≥50 = +++)”.

In the case of “60 (SLTIDGIYYV; listed as Homo sapiens) [compound 60]”, the “Peptide exchange” value is given as ““++++” (≥75% = ++++)”.

Consider “332 (YLISELEAA; listed as Homo sapiens) [compound 332]”, for which the “Peptide exchange” value is recorded as ““+++” (≥50 = +++)”.

“441 (ALLENPKMEL; listed as Homo sapiens) [compound 441]”: the “Peptide exchange” value was ““+++” (≥50 = +++)”.

As to “303 (AILPQLFMV; listed as Homo sapiens) [compound 303]”, the “Peptide exchange” value is reported as ““++++” (≥75% = ++++)”.

For the substance “245 (SMIDDLLGV; listed as Homo sapiens) [compound 245]”, the “Peptide exchange” value is ““+++” (≥50 = +++)”.

Regarding “578 (FLDPGGPMMKL; listed as Homo sapiens) [compound 578]”, the “Peptide exchange” value is reported as ““+++” (≥50 = +++)”.

Consider “478 (YLLHEKLNL; listed as Homo sapiens) [compound 478]”, for which the “Peptide exchange” value is ““+++” (≥50 = +++)”.

Turning to “320 (KMFEFVEPLL; listed as Homo sapiens) [compound 320]”, the “Peptide exchange” value is listed as ““++++” (≥75% = ++++)”.

With “622 (RLLGEEVVRVLQA; listed as Homo sapiens) [compound 622]”, the “Peptide exchange” value is listed as ““+++” (≥50 = +++)”.

On to “188 (GLFPVTPEAV; listed as Homo sapiens) [compound 188]”, for which the “Peptide exchange” value is ““+++” (≥50 = +++)”.

On to “621 (VLMDRLPSLL; listed as Homo sapiens) [compound 621]”, for which the “Peptide exchange” value is listed as ““++++” (≥75% = ++++)”.

Regarding “471 (YLYNNMIAKI; listed as Homo sapiens) [compound 471]”, the “Peptide exchange” value is ““+++” (≥50 = +++)”.

As to “135 (ALSEVDFQL; listed as Homo sapiens) [compound 135]”, the “Peptide exchange” value is recorded as ““+++” (≥50 = +++)”.

“584 (ALAEVAAMENV; listed as Homo sapiens) [compound 584]”: the “Peptide exchange” value is reported as ““+++” (≥50 = +++)”.

As for “343 (SLLEVNEESTV; listed as Homo sapiens) [compound 343]”, the “Peptide exchange” value is given as ““+++” (≥50 = +++)”.

As for “78 (SLFSSLEPQIQPV; listed as Homo sapiens) [compound 78]”, the “Peptide exchange” value is recorded as ““+++” (≥50 = +++)”.

“434 (KVSNSGITRV; listed as Homo sapiens) [compound 434]”: the “Peptide exchange” value is reported as ““++” (≥20% = ++)”.

On to “1 (SLMEPPAVLLL; listed as Homo sapiens) [compound 1]”, for which the “Peptide exchange” value is ““+++” (≥50 = +++)”.

For the substance “185 (FLIDDKGYTL; listed as Homo sapiens) [compound 185]”, the “Peptide exchange” value is ““++” (≥20% = ++)”.

“282 (LLADVVPTT; listed as Homo sapiens) [compound 282]”: the “Peptide exchange” value is recorded as ““+++” (≥50 = +++)”.

Take “289 (VLLEIEDLQV; listed as Homo sapiens) [compound 289]”: the “Peptide exchange” value is reported as ““++++” (≥75% = ++++)”.

Regarding “384 (ILFANPNIFV; listed as Homo sapiens) [compound 384]”, the “Peptide exchange” value is given as ““+++” (≥50 = +++)”.

For the substance “339 (GLWEIENNPTVKA; listed as Homo sapiens) [compound 339]”, the “Peptide exchange” value is ““++++” (≥75% = ++++)”.

Consider “197 (ALGPEGGRV; listed as Homo sapiens) [compound 197]”, for which the “Peptide exchange” value is given as ““++” (≥20% = ++)”.

Regarding “526 (RLAEVGQYEQV; listed as Homo sapiens) [compound 526]”, the “Peptide exchange” value was ““++” (≥20% = ++)”.

Turning to “365 (YVIDQGETDVYV; listed as Homo sapiens) [compound 365]”, the “Peptide exchange” value is ““+++” (≥50 = +++)”.

Turning to “16 (VLFQGQASL; listed as Homo sapiens) [compound 16]”, the “Peptide exchange” value is ““+++” (≥50 = +++)”.
